Where a SMILES comes first, the peptide text is derived from it. Where no end group is shown, it is not given here. [ ]: non-standard residue; d: D form. pY = N[C@@H](Cc1ccc(OP(=O)(O)O)cc1)C(=O)O
B1: SLP76 pY112 peptide (peptide)
peptide: EDD[pY]ESPND
B2: SLP76 pY128 peptide (peptide)
peptide: DGD[pY]ESPNE
B3: SH2-SH3B fragment of Vav1 (669-845) (domain or fragment, mouse, UniProt P27870 669-845, looked up)
chain: HLWYAGPMERAGAEGILTNRSDGTYLVRQRVKDTAEFAISIKYNVEVKHIKIMTSEGLYRITEKKAFRGLLELVEFYQQNSLKDCFKSLDTTLQFPYKEPERRAISKPPAGSTKYFGTAKARYDFCARDRSELSLKEGDIIKILNKKGQQGWWRGEIYGRIGWFPSNYVEEDYSEYC
B4: SH3A-SH2-SH3B fragment of Vav1 (596-845) (domain or fragment, mouse, UniProt P27870 596-845, looked up)
chain: KMEVFQEYYGIPPPPGAFGPFLRLNPGDIVELTKAEAEHNWWEGRNTATNEVGWFPCNRVHPYVHGPPQDLSVHLWYAGPMERAGAEGILTNRSDGTYLVRQRVKDTAEFAISIKYNVEVKHIKIMTSEGLYRITEKKAFRGLLELVEFYQQNSLKDCFKSLDTTLQFPYKEPERRAISKPPAGSTKYFGTAKARYDFCARDRSELSLKEGDIIKILNKKGQQGWWRGEIYGRIGWFPSNYVEEDYSEYC
B5: SH2 domain of Vav1 (669-771) (domain or fragment, mouse, UniProt P27870 669-771, looked up)
chain: HLWYAGPMERAGAEGILTNRSDGTYLVRQRVKDTAEFAISIKYNVEVKHIKIMTSEGLYRITEKKAFRGLLELVEFYQQNSLKDCFKSLDTTLQFPYKEPERR

Legend:
[1] = target: T1, SH3A-SH2 fragment of Vav1 (596–771) (Mus musculus, UniProt P27870); experiment: Isothermal titration calorimetry; type: binding
T1 sequence (P27870 596-771): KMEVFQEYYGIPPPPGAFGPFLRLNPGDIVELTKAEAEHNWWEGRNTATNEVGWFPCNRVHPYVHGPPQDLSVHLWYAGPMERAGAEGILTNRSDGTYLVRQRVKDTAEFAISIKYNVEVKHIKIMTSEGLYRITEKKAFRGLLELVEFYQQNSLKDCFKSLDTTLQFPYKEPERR

[2] = target: T2, SH2-SH3B fragment of Vav1 (669–845) (Mus musculus, UniProt P27870); experiment: Isothermal titration calorimetry; type: binding
T2 sequence (P27870 669-845): B3 chain

[3] = target: B5; experiment: ITC
[4] = target: B3; experiment: ITC
[5] = target: B4; experiment: ITC
[6] = target: T3, SH3A-SH2 fragment of Vav1 (596-771) (mouse, UniProt P27870 596-771); experiment: ITC
T3 sequence (looked up): T1 sequence (P27870 596-771)

[7] = target: SLP76 2pY peptide (pY112 and pY128) (mouse, phosphotyrosine at Y112 and at Y128 (EDDp…pYESPNE)); experiment: ITC

Molecule: NC(=O)C[C@H](NC(=O)[C@@H]1CCCN1C(=O)[C@H](CO)NC(=O)[C@H](CCC(=O)O)NC(=O)[C@H](Cc1ccc(OP(=O)(O)O)cc1)NC(=O)[C@H](CC(=O)O)NC(=O)[C@H](CC(=O)O)NC(=O)[C@@H](N)CCC(=O)O)C(=O)N[C@@H](CC(=O)O)C(=O)O [pY112] (HELM PEPTIDE1{E.D.D.[O=C([C@H](Cc1ccc(OP(=O)(O)O)cc1)N[*:1])[*:2]].E.S.P.N.D}$$$$V2.0)
- Kd [1]: 1060 nM

Molecule: NC(=O)C[C@H](NC(=O)[C@@H]1CCCN1C(=O)[C@H](CO)NC(=O)[C@H](CCC(=O)O)NC(=O)[C@H](Cc1ccc(OP(=O)(O)O)cc1)NC(=O)[C@H](CC(=O)O)NC(=O)CNC(=O)[C@@H](N)CC(=O)O)C(=O)N[C@@H](CCC(=O)O)C(=O)O [pY128] (HELM PEPTIDE1{D.G.D.[O=C([C@H](Cc1ccc(OP(=O)(O)O)cc1)N[*:1])[*:2]].E.S.P.N.E}$$$$V2.0)
- Kd [2]: 1060 nM

Molecule: B1
- Kd [3]: 1640 nM
- Kd [4]: 1320 nM
- Kd [5]: 1850 nM

Molecule: B2
- Kd [6]: 1040 nM
- Kd [5]: 1350 nM

Molecule: B3
- stoichiometry N [7]: 2

Molecule: B4
- stoichiometry N [7]: 2

Molecule: B5
- stoichiometry N [7]: 2 SH2 domain:peptide

From publication PMC3561853 (Journal of Cell Science, 2012)
